Test results as given in patent publication US12570744 (AstraZeneca / MedImmune, dated 2026).

Tests used:
[1] = molecular target: T1, human TIGIT expressed on the cell surface (human, UniProt Q495A1 22-244); experiment: flow cytometry on PD-1^-TIGIT^+ Jurkat cells, mean
T1 construct: whole, on cells; also called Jurkat PD-1^-TIGIT^+ cells; TIGIT^+ Jurkat cells
T1 sequence (looked up): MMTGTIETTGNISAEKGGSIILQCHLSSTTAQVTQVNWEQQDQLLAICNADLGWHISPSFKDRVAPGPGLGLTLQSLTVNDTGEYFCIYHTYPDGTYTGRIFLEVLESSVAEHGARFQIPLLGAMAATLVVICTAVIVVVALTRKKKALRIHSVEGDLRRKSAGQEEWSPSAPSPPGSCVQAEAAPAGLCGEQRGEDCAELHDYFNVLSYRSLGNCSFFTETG
From the text: (§1) TIGIT⁻ cells. […] MFI=geometric mean fluorescence intensity; PD-1=programmed cell-death protein 1; TIGIT=T cell immunoreceptor with Ig and immunoreceptor tyrosine-based inhibitory motif domains. Cellular binding to human single expressing cell lines: Jurkat PD-1⁻ TIGIT⁺ and Jurkat PD-1⁺TIGIT⁻ or human double expressing Jurkat PD-1⁺ TIGIT⁺. Test and control article antibodies were detected with fluorescently conjugated goat anti human IgG secondary antibody and evaluated by flow cytometry.

[2] = molecular target: T2, human PD-1 expressed on the cell surface of engineered Jurkat cells (human, UniProt Q15116 25-288); experiment: flow cytometry on PD-1^+TIGIT^- Jurkat cells, Experiment #2
T2 construct: whole, on cells; also called Jurkat PD-1^+TIGIT^- cells; PD-1^+ Jurkat cells
T2 sequence (Q15116 25-288, change not shown): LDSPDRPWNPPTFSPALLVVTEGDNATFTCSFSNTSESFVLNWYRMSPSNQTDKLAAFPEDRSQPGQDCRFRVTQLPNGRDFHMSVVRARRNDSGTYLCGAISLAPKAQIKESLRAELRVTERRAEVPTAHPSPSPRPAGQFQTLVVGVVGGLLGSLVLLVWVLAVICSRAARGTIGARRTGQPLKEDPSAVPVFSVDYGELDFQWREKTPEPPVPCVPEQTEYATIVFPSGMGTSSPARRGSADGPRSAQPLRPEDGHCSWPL

[3] = molecular target: T3, muTIGIT (mouse TIGIT, recombinant) (mouse (printed as 'mu'), UniProt P86176 29-148, limits assumed); experiment: SPR (BIAcore T200), PD-1/TIGIT DuetMab sample, muTIGIT as ligand
T3 construct: Ligand in the BIAcore assay; The construct is not described
T3 sequence (looked up): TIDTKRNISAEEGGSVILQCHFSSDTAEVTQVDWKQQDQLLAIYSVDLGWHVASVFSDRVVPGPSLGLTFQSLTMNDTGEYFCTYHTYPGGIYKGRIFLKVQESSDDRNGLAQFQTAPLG
Protocol: (§2) Binding experiments were carried out using a BIAcore T200 instrument (BIAcore).

[4] = molecular target: T1, human TIGIT expressed on the cell …; experiment: flow cytometry (MFI) on 293 cells overexpressing human TIGIT; Kd row of the table under the graph, the concentration axis is [nM]
[5] = molecular target: T4, human PD-1 and human TIGIT co-expressed on Jurkat PD-1^+TIGIT^+ cells (human, UniProt Q15116 25-288; Q495A1 22-244); experiment: flow cytometry on PD-1^+TIGIT^+ Jurkat cells, Experiment #2
T4 construct: whole, on cells; Two separate receptors on one cell, not a complex; It serves as the target where the read-out cannot be split between PD-1 and TIGIT; also called PD-1^+TIGIT^+ Jurkat; double expressing Jurkat
T4 sequence (Q15116 25-288, one chain of several): as the sequence (Q15116 25-288, change not shown) above
From the text: as §1

[6] = molecular target: T5, cynomolgus TIGIT overexpressed on 293 cells (cynomolgus, UniProt A0A7N9I9V4 89-312); experiment: flow cytometry (MFI) on 293 cells overexpressing cynomolgus TIGIT; Kd row of the table under the graph, the concentration axis is [nM]
T5 construct: whole, on cells
T5 sequence (A0A7N9I9V4 entry or part of it): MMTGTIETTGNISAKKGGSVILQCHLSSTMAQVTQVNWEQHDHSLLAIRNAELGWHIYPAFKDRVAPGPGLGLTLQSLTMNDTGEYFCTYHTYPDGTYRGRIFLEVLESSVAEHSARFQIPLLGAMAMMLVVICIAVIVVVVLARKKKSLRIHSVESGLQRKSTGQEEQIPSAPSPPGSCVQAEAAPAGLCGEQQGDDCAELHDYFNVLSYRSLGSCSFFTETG

[7] = molecular target: T2, human PD-1 expressed on the cell …; experiment: flow cytometry on PD-1^+TIGIT^- Jurkat cells, Experiment #1
[8] = molecular target: T6, cyTIGIT (cynomolgus TIGIT, recombinant) (cynomolgus, UniProt A0A7N9I9V4 89-209); experiment: SPR (BIAcore T200), PD-1/TIGIT DuetMab sample, cyTIGIT as ligand
T6 construct: Ligand in the BIAcore assay; The construct is not described
T6 sequence (A0A7N9I9V4 entry or part of it): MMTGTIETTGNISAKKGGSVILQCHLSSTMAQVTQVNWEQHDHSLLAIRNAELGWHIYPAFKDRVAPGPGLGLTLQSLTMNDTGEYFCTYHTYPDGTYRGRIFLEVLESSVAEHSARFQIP
Protocol: as §2

[9] = molecular target: T1, human TIGIT expressed on the cell …; experiment: flow cytometry on PD-1^-TIGIT^+ Jurkat cells, Experiment #2
From the text: as §1

[10] = molecular target: T2, human PD-1 expressed on the cell …; experiment: cell-based or functional assay
[11] = molecular target: T2, human PD-1 expressed on the cell …; experiment: flow cytometry on PD-1^+ Jurkat cells, mean of two experiments
[12] = molecular target: T2, human PD-1 expressed on the cell …; experiment: flow cytometry on PD-1^+ Jurkat cells, Experiment #2
[13] = molecular target: T4, human PD-1 and human TIGIT co-expressed …; experiment: cell-based or functional assay
[14] = molecular target: T1, human TIGIT expressed on the cell …; experiment: flow cytometry on TIGIT^+ Jurkat cells, Experiment #1
[15] = molecular target: T4, human PD-1 and human TIGIT co-expressed …; experiment: flow cytometry on PD-1^+TIGIT^+ Jurkat cells, Experiment #1; PD-1^+TIGIT^+ Jurkat cells, Experiment #1
From the text: as §1

[16] = molecular target: T1, human TIGIT expressed on the cell …; experiment: cell-based or functional assay
[17] = molecular target: T1, human TIGIT expressed on the cell …; experiment: flow cytometry on TIGIT^+ Jurkat cells, Experiment #2
[18] = molecular target: T4, human PD-1 and human TIGIT co-expressed …; experiment: flow cytometry on PD-1^+TIGIT^+ Jurkat cells, mean
From the text: as §1

[19] = molecular target: T2, human PD-1 expressed on the cell …; experiment: flow cytometry on PD-1^+ Jurkat cells, Experiment #1
[20] = molecular target: T1, human TIGIT expressed on the cell …; experiment: flow cytometry on TIGIT^+ Jurkat cells, mean of two experiments
[21] = molecular target: T2, human PD-1 expressed on the cell …; experiment: flow cytometry on PD-1^+ Jurkat cells
[22] = molecular target: T7, recombinant human TIGIT protein (human, UniProt Q495A1 22-141); experiment: SPR (BIAcore T200), PD-1/TIGIT DuetMab sample, huTIGIT as ligand
T7 construct: In the Octet assay it was used biotinylated on streptavidin sensors or in solution; Construct and tags are not described; also called huTIGIT; human TIGIT antigen
T7 sequence (looked up): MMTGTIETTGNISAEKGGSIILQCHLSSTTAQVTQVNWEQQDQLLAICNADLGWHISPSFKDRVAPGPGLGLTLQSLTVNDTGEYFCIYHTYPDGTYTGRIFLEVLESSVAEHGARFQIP
Protocol: as §2

[23] = molecular target: T1, human TIGIT expressed on the cell …; experiment: flow cytometry on TIGIT^+ Jurkat cells
[24] = molecular target: T1, human TIGIT expressed on the cell …; experiment: flow cytometry on PD-1^-TIGIT^+ Jurkat cells, Experiment #1
From the text: as §1

[25] = molecular target: T2, human PD-1 expressed on the cell …; experiment: flow cytometry on PD-1^+TIGIT^- Jurkat cells, mean

B1: AZD2936 (PD-1/TIGIT bispecific DuetMab, LO115/VAR1 VHGL-VLGL(M-I)) (bispecific antibody, human IgG1, kappa, lambda)
heavy 1: EVQLVESGGGLVQPGGSLRLSCAASGFTFSDYGMHWVRQAPGKGLEWVAYISSGSYTIYSADSVKGRFTISRDNAKNSLYLQMNSLRAEDTAVYYCARRAPNSFYEYYFDYWGQGTTVTVSSASTKGPSVFPLAPSSKSTSGGTAALGCLVKDYFPEPVTVSWNSGALTSGVHTFPAVLQSSGLYSLSSVVTVPSSSLGTQTYICNVNHKPSNTKVDKRVEPKSCDKTHTCPPCPAPEFEGGPSVFLFPPKPKDTLMISRTPEVTCVVVDVSHEDPEVKFNWYVDGVEVHNAKTKPREEQYNSTYRVVSVLTVLHQDWLNGKEYKCKVSNKALPASIEKTISKAKGQPREPQVCTLPPSREEMTKNQVSLSCAVKGFYPSDIAVEWESNGQPENNYKTTPPVLDSDGSFFLVSKLTVDKSRWQQGNVFSCSVMHEALHNHYTQKSLSLSPGK
light 1: QIVLTQSPATLSLSPGERATLSCSASSKHTNLYWSRHMYWYQQKPGQAPRLLIYLTSNRATGIPARFSGSGSGTDFTLTISSLEPEDFAVYYCQQWSSNPFTFGQGTKLEIKRTVAAPSVFIFPPSDEQLKSGTASVVCLLNNFYPREAKVQWKVDNALQSGNSQESVTEQDSKDSTYSLSSTLTLSKADYEKHKVYACEVTHQGLSSPVTKSFNRGEC
heavy 2: not shown
light 2: not shown
notes: also called VAR1 (LO115/VHGL-VLGL(M-I)); VL GL (CDRL1 M-I) + VH GL
In the case of B1, the EC50 [1] is reported as 0.314 nM, the EC50 [2] is reported as 1.01 nM and the Kd [3] is reported as 2.9 nM. It also gave a koff [3] of 0.00631 s⁻¹, a kon [3] of 2.17e+06 M⁻¹ s⁻¹ and a Kd [4] of 3.42 nM. The EC50 [5] was 0.769 nM, the Kd [6] was 19.9 nM and the EC50 [7] was 0.584 nM. It also gave a Kd [8] of 41.1 nM, a koff [8] of 0.0411 s⁻¹ and a kon [8] of 999000 M⁻¹ s⁻¹. For the same binder, the EC50 [9] was 0.346 nM, the “EC50 (nM), NFAT-luciferase reporter, Experiment #1” value (“EC50 (nM) … Experiment #1” below) [10] was 4.7 nM and the “EC50 (nM), NFAT-luciferase reporter, Experiment #2” value (shortened to “EC50 (nM) … Experiment #2”) [10] was 3.83 nM. The “Fold Change of Mean EC50 vs. Anti-PD-1” value [10] was 1.4 fold, the “Mean EC50 (nM), NFAT-luciferase reporter” value [10] was 4.26 nM and the EC50 [11] was 3.22 nM. The EC50 [12] was 5.49 nM, the “EC50 (nM) … Experiment #1” value [13] was 5.57 nM and the “EC50 (nM) … Experiment #2” value [13] was 6.07 nM. For the same binder, the “Fold Change of Mean EC50 vs. Anti-TIGIT and Anti-PD-1 combination” value [13] was 0.93 fold, the “Mean EC50 (nM), NFAT-luciferase reporter” value [13] was 5.82 nM and the EC50 [14] was 0.303 nM. The EC50 [15] was 0.495 nM, the “EC50 (nM) … Experiment #1” value [16] was 17 nM and the “EC50 (nM) … Experiment #2” value [16] was 13.7 nM. The “Fold Change of Mean EC50 vs. Anti-TIGIT” value [16] was 6.89 fold, the “Mean EC50 (nM), NFAT-luciferase reporter” value [16] was 15.3 nM and the EC50 [17] was 0.375 nM. It also gave an EC50 [18] of 0.632 nM, an EC50 [19] of 0.944 nM and an EC50 [20] of 0.339 nM. The “Fold Change vs. anti-PD-1 (mean EC50)” value [21] was 4.82 fold, the Kd [22] was 0.015 nM and the koff [22] was 6.57e-05 s⁻¹. For the same binder, the kon [22] was 4.37e+06 M⁻¹ s⁻¹, the “Fold Change vs. anti-TIGIT (mean EC50)” value [23] was 2.85 fold and the EC50 [24] was 0.282 nM. The EC50 [25] was 0.797 nM.
